Values quoted from earlier work, collected in patent US9394339B2, “Stabilized formulations of peptides and proteins protecting against non-enzymatic degradation” (Lyotropic Therapeutics, Inc., priority 2007, dated 2016).
Where two headings read alike, the source gives them in different places.

B1: Karyopherin 2 (1QBK): human protein (protein, UniProt Q92973 1-898, looked up)
Transportin-1: MVWDRQTKMEYEWKPDEQGLQQILQLLKESQSPDTTIQRTVQQKLEQLNQYPDFNNYLIFVLTKLKSEDEPTRSLSGLILKNNVKAHFQNFPNGVTDFIKSECLNNIGDSSPLIRATVGILITTIASKGELQNWPDLLPKLCSLLDSEDYNTCEGAFGALQKICEDSAEILDSDVLDRPLNIMIPKFLQFFKHSSPKIRSHAVACVNQFIISRTQALMLHIDSFIENLFALAGDEEPEVRKNVCRALVMLLEVRMDRLLPHMHNIVEYMLQRTQDQDENVALEACEFWLTLAEQPICKDVLVRHLPKLIPVLVNGMKYSDIDIILLKGDVEEDETIPDSEQDIRPRFHRSRTVAQQHDEDGIEEEDDDDDEIDDDDTISDWNLRKCSAAALDVLANVYRDELLPHILPLLKELLFHHEWVVKESGILVLGAIAEGCMQGMIPYLPELIPHLIQCLSDKKALVRSITCWTLSRYAHWVVSQPPDTYLKPLMTELLKRILDSNKRVQEAACSAFATLEEEACTELVPYLAYILDTLVFAFSKYQHKNLLILYDAIGTLADSVGHHLNKPEYIQMLMPPLIQKWNMLKDEDKDLFPLLECLSSVATALQSGFLPYCEPVYQRCVNLVQKTLAQAMLNNAQPDQYEAPDKDFMIVALDLLSGLAEGLGGNIEQLVARSNILTLMYQCMQDKMPEVRQSSFALLGDLTKACFQHVKPCIADFMPILGTNLNPEFISVCNNATWAIGEISIQMGIEMQPYIPMVLHQLVEIINRPNTPKTLLENTAITIGRLGYVCPQEVAPMLQQFIRPWCTSLRNIRDNEEKDSAFRGICTMISVNPSGVIQDFIFFCDAVASWINPKDDLRDMFCKILHGFKNQVGDENWRRFSDQFPLPLKERLAAFYGV
B2: Fructose bisphosphate aldolase (4ALD): human protein (protein, UniProt P04075 2-364, looked up)
Fructose-bisphosphate …: PYQYPALTPEQKKELSDIAHRIVAPGKGILAADESTGSIAKRLQSIGTENTEENRRFYRQLLLTADDRVNPCIGGVILFHETLYQKADDGRPFPQVIKSKGGVVGIKVDKGVVPLAGTNGETTTQGLDGLSERCAQYKKDGADFAKWRCVLKIGEHTPSALAIMENANVLARYASICQQNGIVPIVEPEILPDGDHDLKRCQYVTEKVLAAVYKALSDHHIYLEGTLLKPNMVTPGHACTQKFSHEEIAMATVTALRRTVPPAVTGITFLSGGQSEEEASINLNAINKCPLLKPWALTFSYGRALQASALKAWGGKKENLKAAQEEYVKRALANSLACQGKYTPSGQAGAAASESLFVSNHAY
B3: Inositol monophosphatase (1IMB): human protein (protein, UniProt P29218 1-277, looked up)
Inositol monophosphatase 1: MADPWQECMDYAVTLARQAGEVVCEAIKNEMNVMLKSSPVDLVTATDQKVEKMLISSIKEKYPSHSFIGEESVAAGEKSILTDNPTWIIDPIDGTTNFVHRFPFVAVSIGFAVNKKIEFGVVYSCVEGKMYTARKGKGAFCNGQKLQVSQQEDITKSLLVTELGSSRTPETVRMVLSNMEKLFCIPVHGIRSVGTAAVNMCLVATGGADAYYEMGIHCWDVAGAGIIVTEAGGVLMDVTGGPFDLMSRRVIAANNRILAERIAKEIQVIPLQRDDED
B4: Myeloperoxidase (1MHL): human protein (protein, UniProt P05164 165-745, looked up)
Myeloperoxidase: VTCPEQDKYRTITGMCNNRRSPTLGASNRAFVRWLPAEYEDGFSLPYGWTPGVKRNGFPVALARAVSNEIVRFPTDQLTPDQERSLMFMQWGQLLDHDLDFTPEPAARASFVTGVNCETSCVQQPPCFPLKIPPNDPRIKNQADCIPFFRSCPACPGSNITIRNQINALTSFVDASMVYGSEEPLARNLRNMSNQLGLLAVNQRFQDNGRALLPFDNLHDDPCLLTNRSARIPCFLAGDTRSSEMPELTSMHTLLLREHNRLATELKSLNPRWDGERLYQEARKIVGAMVQIITYRDYLPLVLGPTAMRKYLPTYRSYNDSVDPRIANVFTNAFRYGHTLIQPFMFRLDNRYQPMEPNPRVPLSRVFFASWRVVLEGGIDPILRGLMATPAKLNRQNQIAVDEIRERLFEQVMRIGLDLPALNMQRSRDHGLPGYNAWRRFCGLPQPETVGQLGTVLRNLKLARKLMEQYGTPNNIDIWMGGVSEPLKRKGRVGPLLACIIGTQFRKLRDGDRFWWENEGVFSMQQRQALAQISLPRIICDNTGITTVSKNNIFMSNSYPRDFVNCSTLPALNLASWREAS
B5: Interleukin-16 (1I16): human protein (protein, UniProt Q14005 1212-1332, looked up)
Interleukin-16: SAASASAASDVSVESTAEATVCTVTLEKMSAGLGFSLEGGKGSLHGDKPLTINRIFKGAASEQSETVQPGDEILQLGGTAMQGLTRFEAWNIIKALPDGPVTIVIRRKSLQSKETTAAGDS
B6: Pepsinogen (1HTR): human protein (protein, UniProt P20142 17-388, looked up)
pro-form: AVVKVPLKKFKSIRETMKEKGLLGEFLRTHKYDPAWKYRFGDLSVTYEPMAYMDAAYFGEISIGTPPQNFLVLFDTGSSNLWVPSVYCQSQACTSHSRFNPSESSTYSTNGQTFSLQYGSGSLTGFFGYDTLTVQSIQVPNQEFGLSENEPGTNFVYAQFDGIMGLAYPALSVDEATTAMQGMVQEGALTSPVFSVYLSNQQGSSGGAVVFGGVDSSLYTGQIYWAPVTQELYWQIGIEEFLIGGQASGWCSEGCQAIVDTGTSLLTVPQQYMSALLQATGAQEDEYGQFLVNCNSIQNLPSLTFIINGVEFPLPPSSYILSNNGYCTVGVEPTYLSSQNGQPLWILGDVFLRSYYSVYDLGNNRVGFATAA
modifications: pro-form
B7: Bone morphogenetic protein 7 (1BMP): human protein (protein, UniProt P18075 293-431, looked up)
Bone morphogenetic protein 7: STGSKQRSQNRSKTPKNQEALRMANVAENSSSDQRQACKKHELYVSFRDLGWQDWIIAPEGYAAYYCEGECAFPLNSYMNATNHAIVQTLVHFINPETVPKPCCAPTQLNAISVLYFDDSSNVILKKYRNMVVRACGCH
B8: Acetylcholinesterase (1F8U): human protein (protein, UniProt P22303 32-614, looked up)
Acetylcholinesterase: EGREDAELLVTVRGGRLRGIRLKTPGGPVSAFLGIPFAEPPMGPRRFLPPEPKQPWSGVVDATTFQSVCYQYVDTLYPGFEGTEMWNPNRELSEDCLYLNVWTPYPRPTSPTPVLVWIYGGGFYSGASSLDVYDGRFLVQAERTVLVSMNYRVGAFGFLALPGSREAPGNVGLLDQRLALQWVQENVAAFGGDPTSVTLFGESAGAASVGMHLLSPPSRGLFHRAVLQSGAPNGPWATVGMGEARRRATQLAHLVGCPPGGTGGNDTELVACLRTRPAQVLVNHEWHVLPQESVFRFSFVPVVDGDFLSDTPEALINAGDFHGLQVLVGVVKDEGSYFLVYGAPGFSKDNESLISRAEFLAGVRVGVPQVSDLAAEAVVLHYTDWLHPEDPARLREALSDVVGDHNVVCPVAQLAGRLAAQGARVYAYVFEHRASTLSWPLWMGVPHGYEIEFIFGIPLDPSRNYTAEEKIFAQRLMRYWANFARTGDPNEPRDPKAPQWPPYTAGAQQYVSLDLRPLEVRRGLRAQACAFWNRFLPKLLSATDTLDEAERQWKAEFHRWSSYMVHWKNQFDHYSKQDRCSDL
B9: Catalase (1QQW): human protein (protein, UniProt P04040 2-527, looked up)
Catalase: ADSRDPASDQMQHWKEQRAAQKADVLTTGAGNPVGDKLNVITVGPRGPLLVQDVVFTDEMAHFDRERIPERVVHAKGAGAFGYFEVTHDITKYSKAKVFEHIGKKTPIAVRFSTVAGESGSADTVRDPRGFAVKFYTEDGNWDLVGNNTPIFFIRDPILFPSFIHSQKRNPQTHLKDPDMVWDFWSLRPESLHQVSFLFSDRGIPDGHRHMNGYGSHTFKLVNANGEAVYCKFHYKTDQGIKNLSVEDAARLSQEDPDYGIRDLFNAIATGKYPSWTFYIQVMTFNQAETFPFNPFDLTKVWPHKDYPLIPVGKLVLNRNPVNYFAEVEQIAFDPSNMPPGIEASPDKMLQGRLFAYPDTHRHRLGPNYLHIPVNCPYRARVANYQRDGPMCMQDNQGGAPNYYPNSFGAPEQQPSALEHSIQYSGEVRRFNTANDDNVTQVRAFYVNVLNEEQRKRLCENIAGHLKDAQIFIQKKAVKNFTEVHPDYGSHIQALLDKYNAEKPKNAIHTFVQSGSHLAAREKANL
B10: Dihydrofolate reductase (1DRF): human protein (protein, UniProt P00374 1-187, looked up)
Dihydrofolate reductase: MVGSLNCIVAVSQNMGIGKNGDLPWPPLRNEFRYFQRMTTTSSVEGKQNLVIMGKKTWFSIPEKNRPLKGRINLVLSRELKEPPQGAHFLSRSLDDALKLTEQPELANKVDMVWIVGGSSVYKEAMNHPGHLKLFVTRIMQDFESDTFFPEIDLEKYKLLPEYPGVLSDVQEEKGIKYKFEVYEKND
B11: Farnesyltransferase (1EZF): human protein (protein, UniProt P37268 1-417, looked up)
Squalene synthase: MEFVKCLGHPEEFYNLVRFRIGGKRKVMPKMDQDSLSSSLKTCYKYLNQTSRSFAAVIQALDGEMRNAVCIFYLVLRALDTLEDDMTISVEKKVPLLHNFHSFLYQPDWRFMESKEKDRQVLEDFPTISLEFRNLAEKYQTVIADICRRMGIGMAEFLDKHVTSEQEWDKYCHYVAGLVGIGLSRLFSASEFEDPLVGEDTERANSMGLFLQKTNIIRDYLEDQQGGREFWPQEVWSRYVKKLGDFAKPENIDLAVQCLNELITNALHHIPDVITYLSRLRNQSVFNFCAIPQVMAIATLAACYNNQQVFKGAVKIRKGQAVTLMMDATNMPAVKAIIYQYMEEIYHRIPDSDPSSSKTRQIISTIRTQNLPNCQLISRSHYSPIYLSFVMLLAALSWQYLTTLSQVTEDYVQTGEH
B12: S-adenosylhomocysteine hydrolase (1A7A): human protein (protein, UniProt P23526 2-432, looked up)
Adenosylhomocysteinase: SDKLPYKVADIGLAAWGRKALDIAENEMPGLMRMRERYSASKPLKGARIAGCLHMTVETAVLIETLVTLGAEVQWSSCNIFSTQDHAAAAIAKAGIPVYAWKGETDEEYLWCIEQTLYFKDGPLNMILDDGGDLTNLIHTKYPQLLPGIRGISEETTTGVHNLYKMMANGILKVPAINVNDSVTKSKFDNLYGCRESLIDGIKRATDVMIAGKVAVVAGYGDVGKGCAQALRGFGARVIITEIDPINALQAAMEGYEVTTMDEACQEGNIFVTTTGCIDIILGRHFEQMKDDAIVCNIGHFDVEIDVKWLNENAVEKVNIKPQVDRYRLKNGRRIILLAEGRLVNLGCAMGHPSFVMSNSFTNQVMAQIELWTHPDKYPVGVHFLPKKLDEAVAEAHLGKLNVKLTKLTEKQAQYLGMSCDGPFKPDHYRY

Settings: for T1/2 (half-life, deamidation): buffer
[1] = aqueous solution, pH 7.4, 37° C., Tris-HCl buffer

Molecule	T1/10 (time to 10% degradation by deamidation) [1] [days]	T1/2 (half-life, deamidation) (pH 7.4) [days]	T1/10 (time to 10% degradation by deamidation) (pH 7.4) [days]
B1	0.81		
B2		7.6	1.2
B3		15	2.3
B4	2.4		
B5	2.6		
B6	3.0		
B7	3.2		
B8	3.5		
B9	3.8		
B10		25	3.8
B11	4.0		
B12	4.3		
